From patent publication US20120148607A1 (ARGEN X N V, published 2012)

Assays:
Assay in all cases: ELISA, 48A2 (2 µg/ml) immobilised, chimera added, streptavidin-HRP
[1] = molecular target: T1, LI8 (aa540-909) llama-human c-Met chimera (human; Llama glama, UniProt P08581 25-563)
T1 construct: range 1-539 (mature numbering, E=1; derived);range 540-909 (mature numbering, E=1); also called Ll8; not shown: Flag and strep tag
Source text: (§1) An ELISA was run to investigate the binding of the mAbs to the different chimeras.

[2] = molecular target: T2, LS1 (aa1-98) llama-human c-Met chimera (Llama glama; human, UniProt P08581 123-933)
T2 construct: range 1-98 (mature numbering, E=1);range 99-909 (mature numbering, E=1; derived); not shown: Flag and strep tag
T2 sequence (P08581 123-933, change not shown): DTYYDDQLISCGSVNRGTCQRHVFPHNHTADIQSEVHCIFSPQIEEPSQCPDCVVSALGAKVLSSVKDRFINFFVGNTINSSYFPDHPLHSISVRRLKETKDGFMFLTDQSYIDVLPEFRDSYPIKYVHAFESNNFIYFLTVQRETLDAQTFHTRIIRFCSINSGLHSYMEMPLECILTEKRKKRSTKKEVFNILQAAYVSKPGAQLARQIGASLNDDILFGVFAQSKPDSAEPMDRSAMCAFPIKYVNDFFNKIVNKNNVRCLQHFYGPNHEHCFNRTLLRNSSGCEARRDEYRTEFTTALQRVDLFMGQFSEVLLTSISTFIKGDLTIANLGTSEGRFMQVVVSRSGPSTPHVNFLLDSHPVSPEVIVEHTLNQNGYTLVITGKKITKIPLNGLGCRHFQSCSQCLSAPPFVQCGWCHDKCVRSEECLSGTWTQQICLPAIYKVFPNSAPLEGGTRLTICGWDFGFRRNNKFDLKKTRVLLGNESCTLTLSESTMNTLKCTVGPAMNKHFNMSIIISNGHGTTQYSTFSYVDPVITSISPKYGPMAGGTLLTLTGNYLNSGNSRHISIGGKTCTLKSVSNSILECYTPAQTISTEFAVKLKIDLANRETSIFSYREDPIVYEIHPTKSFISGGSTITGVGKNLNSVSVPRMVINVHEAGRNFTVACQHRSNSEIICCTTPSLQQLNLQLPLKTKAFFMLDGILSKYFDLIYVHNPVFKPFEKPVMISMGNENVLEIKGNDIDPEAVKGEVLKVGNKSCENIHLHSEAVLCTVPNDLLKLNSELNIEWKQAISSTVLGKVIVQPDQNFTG
Source text: as §1

[3] = molecular target: T3, LI9 (aa572-909) llama-human c-Met chimera (human; Llama glama, UniProt P08581 25-595)
T3 construct: range 1-571 (mature numbering, E=1; derived);range 572-909 (mature numbering, E=1); also called Ll9; not shown: Flag and strep tag
T3 sequence (P08581 25-595, change not shown): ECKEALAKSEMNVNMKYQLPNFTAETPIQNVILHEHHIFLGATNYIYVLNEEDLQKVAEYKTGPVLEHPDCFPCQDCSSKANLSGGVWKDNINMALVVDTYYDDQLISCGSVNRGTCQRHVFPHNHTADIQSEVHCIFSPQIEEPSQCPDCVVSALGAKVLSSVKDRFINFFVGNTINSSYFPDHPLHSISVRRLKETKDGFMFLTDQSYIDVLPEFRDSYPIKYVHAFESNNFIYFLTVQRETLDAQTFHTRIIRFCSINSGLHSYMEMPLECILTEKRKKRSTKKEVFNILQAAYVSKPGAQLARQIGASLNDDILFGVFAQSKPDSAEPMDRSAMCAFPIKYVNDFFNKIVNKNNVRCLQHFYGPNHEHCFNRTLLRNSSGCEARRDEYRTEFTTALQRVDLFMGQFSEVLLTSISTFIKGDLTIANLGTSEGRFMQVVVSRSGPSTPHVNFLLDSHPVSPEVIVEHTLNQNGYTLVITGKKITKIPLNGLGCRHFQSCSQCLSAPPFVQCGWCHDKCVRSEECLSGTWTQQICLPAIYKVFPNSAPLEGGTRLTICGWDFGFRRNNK
Source text: as §1

[4] = molecular target: T4, LS5 (aa1-448) llama-human c-Met chimera (Llama glama; human, UniProt P08581 473-933)
T4 construct: range 1-448 (mature numbering, E=1);range 449-909 (mature numbering, E=1; derived); not shown: Flag and strep tag
T4 sequence (P08581 473-933, change not shown): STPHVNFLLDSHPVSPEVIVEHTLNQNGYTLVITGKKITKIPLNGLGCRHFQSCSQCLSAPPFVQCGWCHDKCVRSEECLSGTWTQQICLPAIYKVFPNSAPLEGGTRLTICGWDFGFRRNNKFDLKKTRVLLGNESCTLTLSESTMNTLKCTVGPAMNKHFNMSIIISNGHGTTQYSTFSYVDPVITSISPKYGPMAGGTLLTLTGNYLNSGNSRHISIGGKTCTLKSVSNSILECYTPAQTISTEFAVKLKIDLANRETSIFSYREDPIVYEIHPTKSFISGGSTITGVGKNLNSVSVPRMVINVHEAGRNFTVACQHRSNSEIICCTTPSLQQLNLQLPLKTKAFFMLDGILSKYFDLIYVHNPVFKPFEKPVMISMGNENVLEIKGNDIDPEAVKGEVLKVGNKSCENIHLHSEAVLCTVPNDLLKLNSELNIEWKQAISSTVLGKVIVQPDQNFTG
Source text: as §1

[5] = molecular target: T5, LS2 (aa1-199) llama-human c-Met chimera (Llama glama; human, UniProt P08581 224-933)
T5 construct: range 1-199 (mature numbering, E=1);range 200-909 (mature numbering, E=1; derived); not shown: Flag and strep tag
T5 sequence (P08581 224-933, change not shown): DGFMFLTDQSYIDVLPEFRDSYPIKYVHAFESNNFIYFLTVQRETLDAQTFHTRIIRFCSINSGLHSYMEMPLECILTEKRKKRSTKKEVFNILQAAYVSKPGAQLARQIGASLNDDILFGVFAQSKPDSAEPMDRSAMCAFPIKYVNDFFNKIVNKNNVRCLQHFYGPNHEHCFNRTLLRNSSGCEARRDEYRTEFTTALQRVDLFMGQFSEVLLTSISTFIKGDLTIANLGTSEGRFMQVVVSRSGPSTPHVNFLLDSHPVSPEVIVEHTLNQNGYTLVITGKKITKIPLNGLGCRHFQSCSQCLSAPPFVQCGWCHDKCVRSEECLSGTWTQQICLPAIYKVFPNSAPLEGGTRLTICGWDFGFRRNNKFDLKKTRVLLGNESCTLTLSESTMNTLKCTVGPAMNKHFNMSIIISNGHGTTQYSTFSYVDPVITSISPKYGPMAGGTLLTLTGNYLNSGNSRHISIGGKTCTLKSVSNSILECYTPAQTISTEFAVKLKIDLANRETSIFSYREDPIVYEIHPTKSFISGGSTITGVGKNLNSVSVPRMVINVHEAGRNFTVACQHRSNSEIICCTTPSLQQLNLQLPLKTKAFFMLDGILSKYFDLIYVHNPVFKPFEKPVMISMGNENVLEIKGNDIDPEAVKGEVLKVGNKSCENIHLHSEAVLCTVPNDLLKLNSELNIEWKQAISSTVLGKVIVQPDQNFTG
Source text: as §1

[6] = molecular target: T6, LS3 (aa1-287) llama-human c-Met chimera (Llama glama; human, UniProt P08581 312-933)
T6 construct: range 1-287 (mature numbering, E=1);range 288-909 (mature numbering, E=1; derived); not shown: Flag and strep tag
T6 sequence (P08581 312-933, change not shown): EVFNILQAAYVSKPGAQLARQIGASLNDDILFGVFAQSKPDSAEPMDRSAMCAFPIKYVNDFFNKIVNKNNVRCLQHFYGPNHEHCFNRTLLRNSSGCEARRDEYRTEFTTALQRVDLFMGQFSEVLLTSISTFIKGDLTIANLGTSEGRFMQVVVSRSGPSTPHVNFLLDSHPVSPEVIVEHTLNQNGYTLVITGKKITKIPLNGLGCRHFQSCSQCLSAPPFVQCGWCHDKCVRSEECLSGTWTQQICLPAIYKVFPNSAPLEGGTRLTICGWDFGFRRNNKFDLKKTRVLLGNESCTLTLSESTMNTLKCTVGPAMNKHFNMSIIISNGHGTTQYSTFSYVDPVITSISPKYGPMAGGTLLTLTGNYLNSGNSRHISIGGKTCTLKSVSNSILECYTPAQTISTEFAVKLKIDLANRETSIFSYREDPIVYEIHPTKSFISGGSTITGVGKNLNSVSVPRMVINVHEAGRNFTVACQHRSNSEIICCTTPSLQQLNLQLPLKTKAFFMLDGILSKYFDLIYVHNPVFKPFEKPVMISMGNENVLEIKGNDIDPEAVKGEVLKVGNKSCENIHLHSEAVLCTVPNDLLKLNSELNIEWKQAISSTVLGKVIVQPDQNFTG
Source text: as §1

[7] = molecular target: T7, LI11 (aa634-909) llama-human c-Met chimera (human; Llama glama, UniProt P08581 25-657)
T7 construct: range 1-633 (mature numbering, E=1; derived);range 634-909 (mature numbering, E=1); also called Ll11; not shown: Flag and strep tag
T7 sequence (P08581 25-657, change not shown): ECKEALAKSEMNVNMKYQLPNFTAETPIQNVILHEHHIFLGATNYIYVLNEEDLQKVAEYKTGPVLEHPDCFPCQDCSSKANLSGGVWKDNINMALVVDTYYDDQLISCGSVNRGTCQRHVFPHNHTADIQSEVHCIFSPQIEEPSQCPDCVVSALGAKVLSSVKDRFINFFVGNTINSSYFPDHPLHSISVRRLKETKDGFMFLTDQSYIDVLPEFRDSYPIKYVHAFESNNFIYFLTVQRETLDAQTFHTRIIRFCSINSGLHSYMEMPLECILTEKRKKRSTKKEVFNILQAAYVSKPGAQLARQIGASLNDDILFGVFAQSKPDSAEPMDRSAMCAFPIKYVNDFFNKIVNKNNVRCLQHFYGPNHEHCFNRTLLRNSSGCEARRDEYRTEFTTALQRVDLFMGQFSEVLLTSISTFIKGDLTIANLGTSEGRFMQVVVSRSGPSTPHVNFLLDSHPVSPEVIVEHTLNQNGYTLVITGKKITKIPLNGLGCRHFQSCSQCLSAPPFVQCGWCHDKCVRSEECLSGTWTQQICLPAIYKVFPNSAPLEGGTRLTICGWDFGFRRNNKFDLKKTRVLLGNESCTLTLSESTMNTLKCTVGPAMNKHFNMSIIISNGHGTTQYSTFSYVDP
Source text: as §1

[8] = molecular target: T8, LS4 (aa1-348) llama-human c-Met chimera (Llama glama; human, UniProt P08581 373-933)
T8 construct: range 1-348 (mature numbering, E=1);range 349-909 (mature numbering, E=1; derived); not shown: Flag and strep tag
Source text: as §1

[9] = molecular target: T9, LI10 (aa608-909) llama-human c-Met chimera (human; Llama glama, UniProt P08581 25-631)
T9 construct: range 1-607 (mature numbering, E=1; derived);range 608-909 (mature numbering, E=1); also called Ll10; not shown: Flag and strep tag
T9 sequence (P08581 25-631, change not shown): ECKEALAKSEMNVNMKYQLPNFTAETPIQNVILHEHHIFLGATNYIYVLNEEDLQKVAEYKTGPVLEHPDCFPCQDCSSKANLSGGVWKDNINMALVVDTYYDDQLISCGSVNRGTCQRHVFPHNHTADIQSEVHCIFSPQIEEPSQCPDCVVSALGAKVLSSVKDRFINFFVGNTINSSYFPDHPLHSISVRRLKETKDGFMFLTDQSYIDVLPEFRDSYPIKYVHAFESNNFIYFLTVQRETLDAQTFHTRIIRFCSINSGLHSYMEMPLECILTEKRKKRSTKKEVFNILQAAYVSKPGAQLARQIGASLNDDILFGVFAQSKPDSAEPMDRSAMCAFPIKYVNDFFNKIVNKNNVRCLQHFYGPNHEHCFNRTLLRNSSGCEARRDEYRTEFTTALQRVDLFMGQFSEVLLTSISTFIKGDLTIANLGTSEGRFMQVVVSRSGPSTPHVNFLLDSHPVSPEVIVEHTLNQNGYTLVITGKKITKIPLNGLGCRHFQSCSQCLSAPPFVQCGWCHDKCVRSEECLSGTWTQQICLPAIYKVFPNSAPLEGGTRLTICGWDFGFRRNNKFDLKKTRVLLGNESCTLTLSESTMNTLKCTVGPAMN
Source text: as §1

T1 sequence (P08581 25-563, change not shown): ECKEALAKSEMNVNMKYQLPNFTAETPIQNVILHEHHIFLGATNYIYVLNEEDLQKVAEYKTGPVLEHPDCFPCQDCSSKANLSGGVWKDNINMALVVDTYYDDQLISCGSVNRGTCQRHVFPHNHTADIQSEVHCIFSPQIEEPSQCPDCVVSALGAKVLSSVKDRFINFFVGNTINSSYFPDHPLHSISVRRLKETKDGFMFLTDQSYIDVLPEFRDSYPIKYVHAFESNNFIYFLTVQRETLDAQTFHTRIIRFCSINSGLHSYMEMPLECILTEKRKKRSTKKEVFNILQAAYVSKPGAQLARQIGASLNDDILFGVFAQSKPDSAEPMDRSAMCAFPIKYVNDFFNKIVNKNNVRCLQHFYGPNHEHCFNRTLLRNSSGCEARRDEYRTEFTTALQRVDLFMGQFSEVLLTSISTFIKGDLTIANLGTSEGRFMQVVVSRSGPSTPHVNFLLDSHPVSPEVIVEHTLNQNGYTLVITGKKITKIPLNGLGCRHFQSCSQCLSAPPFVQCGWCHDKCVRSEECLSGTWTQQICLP

B1: 48A2 mAb (antibody, V domains shown)
VH: EVQLVQPGVELRNPGASVKVSCKASGYIFTMNSIDWVRQAPGQGLEWMGRIDPEDGGTKYAQKFQGRVTFTADTSTSTAYVELNSLRSEDTAVYYCARVDDYYLGYDYWGQGTQVTVSS
VL: DIVMTQTPTSVTASAGDKVTINCKSSQSVLFSSNQKNYLAWYQQRLGQSPRLLIYWASIRESGVPDRFSGSGSATDFTLTISNFQPEDAAVYYCQQGYSFPYSFGSGTRLEIR
EC50 [1]: > 0.04 µg/mL
EC50 [2]: 0.031 µg/mL
EC50 [3]: > 0.04 µg/mL
EC50 [4]: 0.05 µg/mL
EC50 [5]: 0.034 µg/mL
EC50 [6]: 0.05 µg/mL
EC50 [7]: 0.042 µg/mL
EC50 [8]: 0.07 µg/mL
EC50 [9]: > 0.04 µg/mL
